Consider three substances from US20230312684A1 (PINETREE THERAPEUTICS, published 2023).

Assay [1] deals with RSV-F (amino acids 1-529), (Extracellular Domain) protein (His tag), ABIN2006856 (respiratory syncytial virus) (UniProt P03420). The assay is described as follows: ELISA, RSV F coated, anti-human IgG-HRP. On the technique in general: In an ELISA, binding on a coated surface is turned into a signal by an enzyme label.
For assay [2], the target named is SARS-CoV-2 (antigen of the ELISA of Example 17; protein not specified) (SARS-CoV-2). The assay is described as follows: ELISA by the method of Example 15, SARS-CoV-2 antigen.

pEC50: −log10 of the molar value.

For “SEQ ID NO: 128, b1b2-Fc (NRP1, K358E, K373E, R513E, K514E, K516E) (Fc fusion)”, the pEC50 in assay [1] was 7.37.

In turn, “SEQ ID NO: 204, b1b2-Fc-ACE2 (NRP1, K358E, K373E, R513E, K514E, K516E) (Fc fusion)” gave a pEC50 in assay [1] of 7.04.

As for “SEQ ID NO: 139, b1b2-b1b2-Fc (NRP1, E319A, double b1b2) (Fc fusion)”, in assay [2], the pEC50 was 7.09.

As a reminder, the pEC50 is the EC50 on a negative log10 scale, so that one unit is a factor of ten.
